Values belong to the substance of their own block, whether it stands above or below them.
Assays:
[1] = target: FtsQ (58–276), periplasmic domain of E. coli FtsQ (Escherichia coli strain K-12) (UniProt P06136); experiment: SPR; FtsQ (58–276) immobilised on a CM5 chip by amide coupling (~1,000 RU); Biacore T200, 20°C; 10 mM HEPES pH 7.4, 150 mM NaCl, 0.4% glycerol; analytes injected 120 s, 600 s dissociation, 1:2 dilution series, triplicate
[2] = target: FITC-labeled FtsB 64–87 peptide (E. coli) (UniProt P0A6S5); experiment: fluorescence polarisation; 10 nM FITC-labeled FtsB 64–87 peptide, FtsQ in threefold dilutions from 800 µM to 0.5 nM; 10 mM HEPES pH 7.4, 150 mM NaCl, 0.1% Tween 20; 1 h at room temperature

Sequence of FtsQ (58–276), periplasmic domain of E. coli FtsQ (Escherichia coli strain K-12) (P06136 58-276): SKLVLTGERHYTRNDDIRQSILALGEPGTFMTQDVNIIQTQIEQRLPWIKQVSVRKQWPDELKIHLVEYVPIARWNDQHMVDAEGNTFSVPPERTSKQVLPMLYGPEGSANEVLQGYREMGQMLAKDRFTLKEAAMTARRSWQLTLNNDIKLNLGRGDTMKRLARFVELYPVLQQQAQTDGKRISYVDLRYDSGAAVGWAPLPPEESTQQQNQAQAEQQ
Sequence of FtsN (57–319), periplasmic domain of E. coli FtsN (P29131 57-319): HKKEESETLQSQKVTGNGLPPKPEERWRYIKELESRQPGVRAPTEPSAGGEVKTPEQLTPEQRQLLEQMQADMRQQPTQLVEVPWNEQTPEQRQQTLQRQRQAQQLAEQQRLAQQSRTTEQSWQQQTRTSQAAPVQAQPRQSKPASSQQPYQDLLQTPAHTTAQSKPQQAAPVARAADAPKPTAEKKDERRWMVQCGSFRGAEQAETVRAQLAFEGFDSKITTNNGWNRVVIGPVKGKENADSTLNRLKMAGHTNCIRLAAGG
Sequence of FtsN (58–320) plus FtsB (22–103), bound together (A7ZQJ2 22-103): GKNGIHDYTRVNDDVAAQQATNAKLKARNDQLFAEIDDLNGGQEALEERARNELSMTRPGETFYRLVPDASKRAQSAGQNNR
Sequence of FtsN (58–320) plus FtsB (22–103), bound together (P29131 57-319): as the sequence (P29131 57-319) above

- fold reduction of binding against wild-type FtsB [1]: 10 fold
Substance: FtsB R72A (from UniProt P0A6S5 22-103) (domain or fragment)

- Kd [1]: 2500 nM
Substance: FtsN (57–319), periplasmic domain of E. coli FtsN (from UniProt P29131 57-319) (domain or fragment)

- Kd of FtsB and FtsN bound together [1]: 120 nM
Substance: FtsN (58–320) plus FtsB (22–103), bound together (from UniProt P0A6S5 22-103; P29131 57-319)

The next lines start with the substance.

Substance: FtsB F84A (from UniProt P0A6S5 22-103) (domain or fragment)
- fold reduction of binding against wild-type FtsB [1]: 10 fold

Substance: FtsQ (58–276), periplasmic domain of E. coli FtsQ (from UniProt P06136 58-276) (domain or fragment)
- Kd [2]: 9500 nM
